In paper PMC3386216 (Molecular Biology of the Cell, 2012):

T1: GST-Sac1 (amino acids 2–521) (S. cerevisiae, UniProt P32368 2-521)
T1 sequence: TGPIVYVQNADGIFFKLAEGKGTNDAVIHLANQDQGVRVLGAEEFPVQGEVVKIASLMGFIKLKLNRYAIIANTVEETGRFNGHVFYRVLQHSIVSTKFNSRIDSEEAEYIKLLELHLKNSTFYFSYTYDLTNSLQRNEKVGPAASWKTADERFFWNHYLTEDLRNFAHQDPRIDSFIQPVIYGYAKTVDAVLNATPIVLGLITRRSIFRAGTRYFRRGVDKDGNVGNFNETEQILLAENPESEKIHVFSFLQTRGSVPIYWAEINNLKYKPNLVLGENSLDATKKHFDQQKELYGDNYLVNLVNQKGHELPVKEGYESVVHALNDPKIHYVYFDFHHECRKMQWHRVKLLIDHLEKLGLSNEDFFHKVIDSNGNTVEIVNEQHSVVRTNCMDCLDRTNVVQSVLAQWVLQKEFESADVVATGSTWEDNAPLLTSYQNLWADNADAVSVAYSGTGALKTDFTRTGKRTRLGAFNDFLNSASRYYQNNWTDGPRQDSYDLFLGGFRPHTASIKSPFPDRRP

B1: Vps74ΔN59 (domain or fragment)
chain: DNINIPTLTLMEEVLLMGLRDREGYLSFWNDSISYALRGCIIIELALRGKIRILDDSARKRFDLSERLIEVIDSSKTGEVLLDETLQLMKNDEPLSISNWIDLLSGETWNLLKINYQLKQVRERLAKGLVDKGVLRTEMKNFFLFDMATHPIADASCKEAIKRRVLSVLVSRNMELSYNEYFPETTSFKIIRTLALICGSYGANVLENVLTTLEYEKRDKAISRAEEIMAQFSQYPFDLEKETELGVSVNLNKEVKEEIENNPGHDLQLEVIAGVFEVFSRMDMLL
B2: His- and T7-tagged Vps74 (natural protein)
chain: MSTLQRRRVNRADSGDTSSIHSSANNTKGDKIANIAVDGDDDNGTNKKIAYDPEESKLRDNINIPTLTLMEEVLLMGLRDREGYLSFWNDSISYALRGCIIIELALRGKIRILDDSARKRFDLSERLIEVIDSSKTGEVLLDETLQLMKNDEPLSISNWIDLLSGETWNLLKINYQLKQVRERLAKGLVDKGVLRTEMKNFFLFDMATHPIADASCKEAIKRRVLSVLVSRNMELSYNEYFPETTSFKIIRTLALICGSYGANVLENVLTTLEYEKRDKAISRAEEIMAQFSQYPFDLEKETELGVSVNLNKEVKEEIENNPGHDLQLEVIAGVFEVFSRMDMLL

Columns and labels:
[1] = target: Sac1 (amino acids 2–521) (untagged recombinant, SPR) (S. cerevisiae) (UniProt P32368); assay: SPR
[2] = target: T1, GST-Sac1 (amino acids 2–521); assay: pull-down

Binder | Kd [1] [µM] | binding result [2]
B1 | 4.2 | 
B2 | 3.8 | binds
